The text below walks through data of the supplement of paper PMC9112550, “Optimization of the antimicrobial peptide Bac7 by deep mutational scanning” (BMC Biology, 2022).
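Note: peptides expressed intracellularly from a pBAD plasmid library in pooled LB shake-flask culture, induced with 0.3% L-arabinose, DNA abundance read by NGS, three biological replicates, DESeq2 with apeglm shrinkage.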

The series has as its system Escherichia coli TOP10. The experiment in a line: shrunken log2 fold change of peptide-encoding DNA abundance (4.5 h post-induction vs induction); higher = less antimicrobial activity (less host growth inhibition). As to conditions: time post-induction: 4.5 h; library: site-saturation at positions 5, 18, 19, 20.
As for RRIRIRPPRLPRPRPRPIKVPRP, the “shrunken log2 fold change” value was -0.398.
For the sequence RRIRCRPPRLPRPRPRPMFCPRP, the “shrunken log2 fold change” value was -0.237.
Take RRIRWRPPRLPRPRPRPNDVPRP: the “shrunken log2 fold change” value was -0.0909.
In the case of RRIRWRPPRLPRPRPRPVIHPRP, the “shrunken log2 fold change” value worked out at 0.162.
On to RRIRCRPPRLPRPRPRPFYMPRP, for which the “shrunken log2 fold change” value was -1.15.
With RRIRYRPPRLPRPRPRPNDNPRP, the “shrunken log2 fold change” value was -0.635.
On to RRIRERPPRLPRPRPRPKSDPRP, for which the “shrunken log2 fold change” value is -0.0784.
Take RRIRDRPPRLPRPRPRPPEFPRP: the “shrunken log2 fold change” value was -0.0567.
Regarding RRIRIRPPRLPRPRPRPDATPRP, the “shrunken log2 fold change” value was determined as 0.0122.
Consider RRIRSRPPRLPRPRPRPDKIPRP, for which the “shrunken log2 fold change” value came out at 0.11.
Take RRIRLRPPRLPRPRPRPDPMPRP: the “shrunken log2 fold change” value was -0.00264.
RRIRIRPPRLPRPRPRPEHCPRP: the “shrunken log2 fold change” value was found to be 0.0755.
In the case of RRIRVRPPRLPRPRPRPQKHPRP, the “shrunken log2 fold change” value was -0.247.
Take RRIRLRPPRLPRPRPRPGEIPRP: the “shrunken log2 fold change” value is -0.141.
The value for RRIRKRPPRLPRPRPRPPGCPRP was 0.955; that for RRIRCRPPRLPRPRPRPCMNPRP was -0.627; that for RRIRMRPPRLPRPRPRPMIQPRP was 0.00725.
As for RRIRCRPPRLPRPRPRPLSMPRP, the “shrunken log2 fold change” value was -0.207.
On to RRIRIRPPRLPRPRPRPLYLPRP, for which the “shrunken log2 fold change” value was -1.08.
For the sequence RRIRERPPRLPRPRPRPLNFPRP, the “shrunken log2 fold change” value was -0.34.
As to RRIRTRPPRLPRPRPRPDYAPRP, the “shrunken log2 fold change” value came out at 0.0553.
For the sequence RRIRPRPPRLPRPRPRPYHLPRP, the “shrunken log2 fold change” value is -1.07.
On to RRIRARPPRLPRPRPRPNQYPRP, for which the “shrunken log2 fold change” value is -0.801.
For the sequence RRIRFRPPRLPRPRPRPTAVPRP, the “shrunken log2 fold change” value was found to be 0.117.
Take RRIRERPPRLPRPRPRPNDYPRP: the “shrunken log2 fold change” value was -0.41.
For RRIRVRPPRLPRPRPRPARCPRP, the “shrunken log2 fold change” value came out at 0.205.
Regarding RRIRIRPPRLPRPRPRPYARPRP, the “shrunken log2 fold change” value is -1.22.
Consider RRIRHRPPRLPRPRPRPNGEPRP, for which the “shrunken log2 fold change” value was determined as 0.164.
For RRIRSRPPRLPRPRPRPAMSPRP, the “shrunken log2 fold change” value was -0.0932.
Consider RRIRCRPPRLPRPRPRPYAVPRP, for which the “shrunken log2 fold change” value was -0.349.
RRIRRRPPRLPRPRPRPGIIPRP: the “shrunken log2 fold change” value was found to be 0.028.
For the sequence RRIRKRPPRLPRPRPRPTQMPRP, the “shrunken log2 fold change” value worked out at 0.8.
Regarding RRIRNRPPRLPRPRPRPDEDPRP, the “shrunken log2 fold change” value came out at 0.421.
With RRIRERPPRLPRPRPRPMRNPRP, the “shrunken log2 fold change” value is -0.062.
For RRIRVRPPRLPRPRPRPLMCPRP, the “shrunken log2 fold change” value was -0.268.
As to RRIRTRPPRLPRPRPRPTQQPRP, the “shrunken log2 fold change” value was 0.175.
As for RRIRWRPPRLPRPRPRPAHAPRP, the “shrunken log2 fold change” value was determined as 0.191.
The value for RRIRARPPRLPRPRPRPMSDPRP was 0.56; that for RRIRKRPPRLPRPRPRPMTNPRP was 0.184; that for RRIRKRPPRLPRPRPRPTCHPRP was 0.169.
The value for RRIRSRPPRLPRPRPRPWMAPRP was 0.0303; that for RRIRHRPPRLPRPRPRPKDKPRP was -0.23; that for RRIRARPPRLPRPRPRPVPCPRP was 0.341.
For RRIRDRPPRLPRPRPRPFDKPRP, the “shrunken log2 fold change” value is -0.0665.
As to RRIRNRPPRLPRPRPRPIKGPRP, the “shrunken log2 fold change” value is -0.104.
Turning to RRIRDRPPRLPRPRPRPMYGPRP, the “shrunken log2 fold change” value was -0.0676.
With RRIRHRPPRLPRPRPRPDHFPRP, the “shrunken log2 fold change” value is -0.169.
Regarding RRIRIRPPRLPRPRPRPWGDPRP, the “shrunken log2 fold change” value was -0.38.
The value for RRIRMRPPRLPRPRPRPGHVPRP was 0.329; that for RRIRRRPPRLPRPRPRPQRFPRP was 0.294; that for RRIRWRPPRLPRPRPRPTYQPRP was -0.325.
With RRIRRRPPRLPRPRPRPKGWPRP, the “shrunken log2 fold change” value is 0.439.
The value for RRIRFRPPRLPRPRPRPPAGPRP was 0.727.
With RRIRIRPPRLPRPRPRPLDHPRP, the “shrunken log2 fold change” value was -0.333.
On to RRIRIRPPRLPRPRPRPQIFPRP, for which the “shrunken log2 fold change” value turned out to be 0.0997.
With RRIRSRPPRLPRPRPRPVTTPRP, the “shrunken log2 fold change” value is -0.163.
For the sequence RRIRMRPPRLPRPRPRPPWDPRP, the “shrunken log2 fold change” value is 0.931.
The value for RRIRSRPPRLPRPRPRPVMKPRP was -0.45; that for RRIRDRPPRLPRPRPRPVLPPRP was 0.0231; that for RRIRQRPPRLPRPRPRPWLMPRP was -0.102.
In the case of RRIRMRPPRLPRPRPRPWDKPRP, the “shrunken log2 fold change” value was -0.0134.
Take RRIRIRPPRLPRPRPRPDWYPRP: the “shrunken log2 fold change” value is -0.842.
As to RRIRIRPPRLPRPRPRPKLEPRP, the “shrunken log2 fold change” value is -0.136.
Turning to RRIRHRPPRLPRPRPRPMVNPRP, the “shrunken log2 fold change” value is -0.469.
With RRIRFRPPRLPRPRPRPPYRPRP, the “shrunken log2 fold change” value came to 0.0239.
RRIRNRPPRLPRPRPRPQHKPRP: the “shrunken log2 fold change” value was -0.155.
Take RRIRMRPPRLPRPRPRPYIVPRP: the “shrunken log2 fold change” value is -0.00174.
Take RRIRWRPPRLPRPRPRPGEKPRP: the “shrunken log2 fold change” value worked out at 0.489.
Take RRIRCRPPRLPRPRPRPGTIPRP: the “shrunken log2 fold change” value is 0.00164.
Take RRIRLRPPRLPRPRPRPNNHPRP: the “shrunken log2 fold change” value was -0.761.
The value for RRIRQRPPRLPRPRPRPFQLPRP was -0.00805; that for RRIRWRPPRLPRPRPRPVDAPRP was 0.434.
As to RRIRWRPPRLPRPRPRPSQIPRP, the “shrunken log2 fold change” value is -0.165.
The value for RRIRDRPPRLPRPRPRPYSKPRP was 0.0519; that for RRIRGRPPRLPRPRPRPIPPPRP was 0.548; that for RRIRNRPPRLPRPRPRPHDDPRP was 0.008.
Then RRIRERPPRLPRPRPRPVGMPRP, with -0.0934; and RRIRRRPPRLPRPRPRPECEPRP, with 0.323; and RRIRHRPPRLPRPRPRPPVDPRP, with 1.89.
Then RRIRVRPPRLPRPRPRPYHNPRP, with -0.946; and RRIRPRPPRLPRPRPRPLYIPRP, with -0.227; and RRIRQRPPRLPRPRPRPGYMPRP, with -0.131.
For RRIRWRPPRLPRPRPRPEPPPRP, the “shrunken log2 fold change” value is 0.977.
Regarding RRIRVRPPRLPRPRPRPMLLPRP, the “shrunken log2 fold change” value was -0.322.
In the case of RRIRQRPPRLPRPRPRPHKPPRP, the “shrunken log2 fold change” value is -0.0272.
For the sequence RRIRWRPPRLPRPRPRPHVDPRP, the “shrunken log2 fold change” value is -0.127.
For the sequence RRIRPRPPRLPRPRPRPQVAPRP, the “shrunken log2 fold change” value was -0.0363.
The value for RRIRDRPPRLPRPRPRPGWQPRP was 0.22.
Regarding RRIRPRPPRLPRPRPRPVMKPRP, the “shrunken log2 fold change” value is -0.00931.
In the case of RRIRIRPPRLPRPRPRPQETPRP, the “shrunken log2 fold change” value was -0.0344.
Then RRIRTRPPRLPRPRPRPICLPRP, with -0.14; and RRIRWRPPRLPRPRPRPWYTPRP, with -0.0512; and RRIRLRPPRLPRPRPRPQPCPRP, with -0.215.
The value for RRIRCRPPRLPRPRPRPNYHPRP was -0.93; that for RRIRVRPPRLPRPRPRPKANPRP was 0.103.
Take RRIRLRPPRLPRPRPRPLNVPRP: the “shrunken log2 fold change” value was found to be 0.0831.
RRIRHRPPRLPRPRPRPFFAPRP: the “shrunken log2 fold change” value amounted to 0.0898.
Turning to RRIRDRPPRLPRPRPRPACNPRP, the “shrunken log2 fold change” value came out at 0.0741.
Regarding RRIRVRPPRLPRPRPRPFNHPRP, the “shrunken log2 fold change” value is -0.106.
The value for RRIRARPPRLPRPRPRPLFMPRP was -0.166; that for RRIRKRPPRLPRPRPRPAEPPRP was 0.429.
Turning to RRIRYRPPRLPRPRPRPVKWPRP, the “shrunken log2 fold change” value came to 0.0689.
RRIRGRPPRLPRPRPRPSMPPRP: the “shrunken log2 fold change” value worked out at 0.0931.
On to RRIRYRPPRLPRPRPRPKIQPRP, for which the “shrunken log2 fold change” value is -0.68.
For RRIRHRPPRLPRPRPRPDMLPRP, the “shrunken log2 fold change” value was -0.481.
As for RRIRIRPPRLPRPRPRPVNIPRP, the “shrunken log2 fold change” value was -0.17.
With RRIRWRPPRLPRPRPRPTHNPRP, the “shrunken log2 fold change” value stood at 0.0181.
For RRIRVRPPRLPRPRPRPSQVPRP, the “shrunken log2 fold change” value was -0.215.
On to RRIRLRPPRLPRPRPRPTHAPRP, for which the “shrunken log2 fold change” value was 0.029.
Consider RRIRVRPPRLPRPRPRPREVPRP, for which the “shrunken log2 fold change” value came to 0.089.
On to RRIRERPPRLPRPRPRPNHNPRP, for which the “shrunken log2 fold change” value was -0.418.
Regarding RRIRTRPPRLPRPRPRPPLQPRP, the “shrunken log2 fold change” value was found to be 0.369.
The value for RRIRHRPPRLPRPRPRPQGCPRP was -0.0592; that for RRIRIRPPRLPRPRPRPVAWPRP was -0.0525; that for RRIRFRPPRLPRPRPRPWFPPRP was -0.0773.
In the case of RRIRYRPPRLPRPRPRPQDFPRP, the “shrunken log2 fold change” value was -0.481.
Then RRIRMRPPRLPRPRPRPPEMPRP, with 0.329; and RRIRVRPPRLPRPRPRPRKAPRP, with -0.124.
For RRIRPRPPRLPRPRPRPRIMPRP, the “shrunken log2 fold change” value was -0.0771.
Then RRIRGRPPRLPRPRPRPEPLPRP, with 0.341.
For the sequence RRIRCRPPRLPRPRPRPIKWPRP, the “shrunken log2 fold change” value is -0.343.
Take RRIRWRPPRLPRPRPRPRDAPRP: the “shrunken log2 fold change” value worked out at 0.632.
Regarding RRIRMRPPRLPRPRPRPLPLPRP, the “shrunken log2 fold change” value came out at 0.718.
Turning to RRIRYRPPRLPRPRPRPKSYPRP, the “shrunken log2 fold change” value is -0.101.
The value for RRIRYRPPRLPRPRPRPLSCPRP was -0.0548.
